B1: recombinant catalytic domain of human MMP1 (protein)
chain: FVLTEGNPRWEQTHLTYRIENYTPDLPRADVDHAIEKAFQLWSNVTPLTFTKVSEGQADIMISFVRGDHRDNSPFDGPGGNLAHAFQPGPGIGGDAHFDEDERWTNNFREYNLHRVAAHELGHSLGLSHSTDIGALMYPSYTFSGDVQLAQDDIDGIQAIYGRSQNPVQP
B2: recombinant catalytic domain of human MMP12 (protein)
chain: GPVWRKHYITYRINNYTPDMNREDVDYAIRKAFQVWSNVTPLKFSKINTGMADILVVFARGAHGDFHAFDGKGGILAHAFGPGSGIGGDAHFDEDEFWTTHSGGTNLFLTAVHEIGHSLGLGHSSDPKAVMFPTYKYVDINTFRLSADDIRGIQSLYG

Target: All antibodies according to the invention, which were tested (Example 4)

Row | Protein | cleavage of fluorogenic peptide OmniMMP RED by MMP catalytic domain, antibody at 100 nM
1 | B1 | had no significant effect on the catalytic activity of the eight other human MMPs tested
2 | B2 | had no significant effect on the catalytic activity of the eight other human MMPs tested
